Source: publication PMC10092763

Molecular target: PAX2 (UniProt Q02962)
Experiment: co-IP, FLAG-PAX2 with HA-AFF4
Conditions: reference: wild type; sites S388

AFF4 (from UniProt Q9UHB7) S388A
binding against the reference: weaker
